Source: PMC9424733, “Lysine acetylation of Escherichia coli lactate dehydrogenase regulates enzyme activity and lactate synthesis” (Frontiers in Bioengineering and Biotechnology, 2022)
Positions count from the first letter of the chain named. Names may count otherwise.

B1: Escherichia coli lactate dehydrogenase (LdhA), wild type (enzyme, UniProt P52643 1-329, looked up)
chain: MKLAVYSTKQYDKKYLQQVNESFGFELEFFDFLLTEKTAKTANGCEAVCIFVNDDGSRPVLEELKKHGVKYIALRCAGFNNVDLDAAKELGLKVVRVPAYDPEAVAEHAIGMMMTLNRRIHRAYQRTRDANFSLEGLTGFTMYGKTAGVIGTGKIGVAMLRILKGFGMRLLAFDPYPSAAALELGVEYVDLPTLFSESDVISLHCPLTPENYHLLNEAAFEQMKNGVMIVNTSRGALIDSQAAIEALKNQKIGSLGMDVYENERDLFFEDKSNDVIQDDVFRRLSACHNVLFTGHQAFLTAEALTSISQTTLQNLSNLEKGETCPNELV
notes: D-lactate dehydrogenase LdhA of Escherichia coli; Partly acetylated on K9, K70, K154 and K248 when grown with 2% glucose (mass spectrometry); also called EcLdhA; NAD-dependent lactate dehydrogenase
B2: Escherichia coli LdhA (D279N) (enzyme, UniProt P52643 1-329, looked up)
chain: B1 chain with D279N
notes: D-lactate dehydrogenase LdhA of Escherichia coli with D279N; Same construct as m1 with the point mutation; also called LdhA D279N mutant
B3: Escherichia coli LdhA (K248R) (enzyme, UniProt P52643 1-329, looked up)
chain: B1 chain with K248R
notes: D-lactate dehydrogenase LdhA of Escherichia coli with K248R; Same construct as m1 with the point mutation; also called LdhA K248R mutant
B4: Escherichia coli LdhA (K248Q) (enzyme, UniProt P52643 1-329, looked up)
chain: B1 chain with K248Q
notes: D-lactate dehydrogenase LdhA of Escherichia coli with K248Q (mimics acetyl-lysine); Same construct as m1 with the point mutation; also called LdhA K248Q mutant

Target: the molecule itself
Assay: SEC; gel filtration analysis of purified LdhA and mutants; retention volumes of the highest peaks compared; column and buffer not told

Stoichiometry N, 4:
B1
B2
B3
B4
